Consider twelve variants from article PMC4919659 (2016).

First the molecules themselves.
B1: EGFP-RASSF5C (wild type) [not stated] / mCherry-SARAH_(MST1) [not stated] (parent complex)
chain 1: MTVDSSMSSGYCSLDEELEDCFFTAKTTFFRNAQSKHLSKNVCKPVEETQRPPTLQEIKQKIDSYNTREKNCLGMKLSEDGTYTGFIKVHLKLRRPVTVPAGIRPQSIYDAIKEVNLAATTDKRTSFYLPLDAIKQLHISSTTTVSEVIQGLLKKFMVVDNPQKFALFKRIHKDGQVLFQKLSIADRPLYLRLLAGPDTEVLSFVLKENETGEVEWDAFSIPELQNFLTILEKEEQDKIQQVQKKYDKFRQKLEEALRESQGKPG
chain 2: DYEFLKSWTVEDLQKRLLALDPMMEQEIEEIRQKYQSKRQPILDAIEAKKRRQQNF
B2: EGFP-RASSF1 (wild type) [not stated] / mCherry-SARAH_(MST1) [not stated] (parent complex)
chain 1: MSGEPELIELRELAPAGRAGKGRTRLERANALRIARGTACNPTRQLVPGRGHRFQPAGPATHTWCDLCGDFIWGVVRKGLQCAHCKFTCHYRCRALVCLDCCGPRDLGWEPAVERDTNVDEPVEWETPDLSQAEIEQKIKEYNAQINSNLFMSLNKDGSYTGFIKVQLKLVRPVSVPSSKKPPSLQDARRGPGRGTSVRRRTSFYLPKDAVKHLHVLSRTRAREVIEALLRKFLVVDDPRKFALFERAERHGQVYLRKLLDDEQPLRLRLLAGPSDKALSFVLKENDSGEVNWDAFSMPELHNFLRILQREEEEHLRQILQKYSYCRQKIQEALHACPLG
chain 2: B1 chain 2
B3: EGFP-RASSF1 (wild type) [not stated] / myc-MST1 K59R [not stated] (parent complex)
chain 1: B2 chain 1
chain 2: METVQLRNPPRRQLKKLDEDSLTKQPEEVFDVLEKLGEGSYGSVYKAIHKETGQIVAIRQVPVESDLQEIIKEISIMQQCDSPHVVKYYGSYFKNTDLWIVMEYCGAGSVSDIIRLRNKTLTEDEIATILQSTLKGLEYLHFMRKIHRDIKAGNILLNTEGHAKLADFGVAGQLTDTMAKRNTVIGTPFWMAPEVIQEIGYNCVADIWSLGITAIEMAEGKPPYADIHPMRAIFMIPTNPPPTFRKPELWSDNFTDFVKQCLVKSPEQRATATQLLQHPFVRSAKGVSILRDLINEAMDVKLKRQESQQREVDQDDEENSEEDEMDSGTMVRAVGDEMGTVRVASTMTDGANTMIEHDDTLPSQLGTMVINAEDEEEEGTMKRRDETMQPAKPSFLEYFEQKEKENQINSFGKSVPGPLKNSSDWKIPQDGDYEFLKSWTVEDLQKRLLALDPMMEQEIEEIRQKYQSKRQPILDAIEAKKRRQQNF
B4: EGFP-RASSF5C (wild type) [not stated] / myc-MST1 K59R [not stated] (parent complex)
chain 1: B1 chain 1
chain 2: B3 chain 2

One assay covers variants of B1. Nature of the assay: FRET-FLIM in cells (EGFP donor lifetime, monoexponential fit, wide-field imaging); co-expressed with mCherry-SARAH(MST1); median of segmented cells; parent: 2.27e+03; read off a plot.
chain 1 L224P: the response was roughly 2380 ps.

For chain 1 L231P, the response was roughly 2430 ps. Consider chain 1 L228P, for which the response was roughly 2490 ps.

In the next assay the parent is B2. Kind of assay: FRET-FLIM in cells (EGFP donor lifetime, monoexponential fit, wide-field imaging); co-expressed with mCherry-SARAH(MST1); median of segmented cells; parent: 2.25e+03; read off a plot.
For the variant chain 1 L305P, the response is roughly 2490 ps. As to chain 1 L308P, the response is roughly 2500 ps. Same read-out and setting: the value for chain 1 L301P was roughly 2510 ps.

In another assay the parent is B3. Nature of the assay: co-immunoprecipitation (IP anti-myc, IB anti-GFP), band quantification; n = 3; parent: 1.05; read off a plot.
On to chain 1 L308P, for which the ratio to parent is roughly 0.13.

With chain 1 L301P, the ratio to parent was roughly 0.32. Still for that read-out and setting: to chain 1 L305P belongs roughly 0.07.

A further assay covers variants of B4. Kind of assay: co-immunoprecipitation (IP anti-myc, IB anti-GFP), band quantification; n = 3; parent: 1.02; read off a plot.
In the case of chain 1 L228P, the ratio to parent was roughly 0.9.

chain 1 L231P: the ratio to parent is roughly 0.85.

For the variant chain 1 L224P, the ratio to parent was roughly 0.98.
